Experimental data reported in paper PMC9548623.

B1: DH272.2 Fab (Fab, V domains shown)
VH: QVQLVQSGAEVKKPGASVKVSCQASGYRVSDHFVNWMRQAPGQRLEWIGWFNPDSRDTHYADKFKGRVTSTKIGNTVYMQLSSLRSDDTAVYYCARERYDFHSGLEGSFDFWGQGTLVTV
VL: DIVMTQSPLSLPVTLGQPASISCRSSQSLVHNYGNTYLNWFQQRPGQSPRRLIYKVSGRDSGVPDRFSGGGSGTDFTLKISSVEAEDVGVYYCMQGTHWPRTFGQGTKLEIN

Experiments:
[1] = target: DH475 Fab, heavy chain D77A (human); test: BLI; BLItz; Fab (0.2 mg/mL) immobilised on Anti-Human Fab-CH1 2nd Generation (FAB2G) biosensors, Env constructs titrated; 2.5 mM Tris pH 7.5, 350 mM NaCl; global fit
Sequence of DH475 Fab, heavy chain D77A (human) (heavy, as listed by the source, chain 1 of 2): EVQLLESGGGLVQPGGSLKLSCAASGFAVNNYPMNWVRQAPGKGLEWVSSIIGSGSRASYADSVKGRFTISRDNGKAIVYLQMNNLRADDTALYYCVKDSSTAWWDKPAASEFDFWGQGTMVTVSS
Sequence of DH475 Fab, heavy chain D77A (human) (light, as listed by the source, chain 2 of 2): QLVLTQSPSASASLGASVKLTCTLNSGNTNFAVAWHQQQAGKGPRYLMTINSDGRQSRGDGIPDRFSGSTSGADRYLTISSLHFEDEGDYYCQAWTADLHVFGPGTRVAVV

[2] = target: DH475 Fab, heavy chain N30A (human); test: as above
Sequence of DH475 Fab, heavy chain N30A (human) (heavy, as listed by the source, chain 1 of 2): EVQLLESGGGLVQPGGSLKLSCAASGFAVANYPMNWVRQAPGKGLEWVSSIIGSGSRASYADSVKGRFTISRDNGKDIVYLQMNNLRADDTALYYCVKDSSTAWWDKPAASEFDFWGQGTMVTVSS
Sequence of DH475 Fab, heavy chain N30A (human) (light, as listed by the source, chain 2 of 2): as the sequence (light, as listed by the source, chain 2 of 2) above

[3] = target: DH475 Fab, heavy chain N31A (human); test: as above
Sequence of DH475 Fab, heavy chain N31A (human) (heavy, as listed by the source, chain 1 of 2): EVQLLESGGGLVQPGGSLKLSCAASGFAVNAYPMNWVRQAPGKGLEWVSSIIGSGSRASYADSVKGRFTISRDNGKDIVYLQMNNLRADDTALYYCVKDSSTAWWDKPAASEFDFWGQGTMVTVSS
Sequence of DH475 Fab, heavy chain N31A (human) (light, as listed by the source, chain 2 of 2): as the sequence (light, as listed by the source, chain 2 of 2) above

[4] = target: DH475 Fab, heavy chain W104A (human); test: as above
Sequence of DH475 Fab, heavy chain W104A (human) (heavy, as listed by the source, chain 1 of 2): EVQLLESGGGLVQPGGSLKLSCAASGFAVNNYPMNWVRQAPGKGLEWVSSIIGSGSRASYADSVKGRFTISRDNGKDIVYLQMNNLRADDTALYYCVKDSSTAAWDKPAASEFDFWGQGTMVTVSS
Sequence of DH475 Fab, heavy chain W104A (human) (light, as listed by the source, chain 2 of 2): as the sequence (light, as listed by the source, chain 2 of 2) above

[5] = target: CH848 TF DS SOSIP Env trimer (HIV-1 (donor CH848, transmitted/founder)); test: ITC; 157 uM DH272.2 injected into a cell with 7.59 uM CH848 TF DS SOSIP Env; single site model

Row | Molecule | Kd [1] [µM] | Kd [2] [µM] | Kd [3] [µM] | Kd [4] [µM] | stoichiometry N [5]
1 | CH848 transmitted/founder (TF) gp120 core (domain or fragment) | > 50 | > 50 | > 50 | > 50 | –
2 | B1 | – | – | – | – | 3
